Patent publication US20100285037A1 (ARCA BIOPHARMA, published 2010)

T1: CLL-1-ECD-V5His recombinant protein (human, UniProt Q5QGZ9 67-265)
T1 construct: also called recombinant CLL-1 protein; CLL-1 V5-6His protein; not shown: C-terminal V5-His tag
T1 sequence: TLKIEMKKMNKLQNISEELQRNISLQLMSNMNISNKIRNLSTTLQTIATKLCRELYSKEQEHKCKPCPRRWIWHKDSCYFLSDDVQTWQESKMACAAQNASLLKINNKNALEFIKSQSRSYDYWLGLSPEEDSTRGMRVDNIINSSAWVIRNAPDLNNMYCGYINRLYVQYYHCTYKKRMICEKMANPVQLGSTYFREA

T2: CLL-1 on cells (HEK293 cells stably transfected with CLL-1; HL-60 and other AML cells) (human, UniProt Q5QGZ9 1-265)
T2 sequence: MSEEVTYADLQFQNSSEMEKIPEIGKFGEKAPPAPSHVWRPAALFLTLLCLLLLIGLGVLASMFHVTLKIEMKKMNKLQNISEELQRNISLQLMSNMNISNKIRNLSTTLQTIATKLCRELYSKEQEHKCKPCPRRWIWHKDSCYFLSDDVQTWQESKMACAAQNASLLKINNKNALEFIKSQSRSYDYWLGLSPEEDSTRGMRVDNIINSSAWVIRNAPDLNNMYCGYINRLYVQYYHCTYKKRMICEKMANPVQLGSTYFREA

B1: chimeric anti-CLL-1 monoclonal antibody 21.16 (antibody, human IgG1, V domains shown)
VH: QVQLQQPGAELVKPGTSVKLSCKASGYTFTRYWMHWVKQRPGQGLEWIGMIHPSSGSTSYNEKVKNKATLTVDRSSTTAYMQLSSLTSEDSAVYYCARDGDYYYGTGDYWGQGTTLTVSS
VL: QIVLSQSPAILSASPGEKVTMTCRASSSINYMHWYQQKPGSSPKPWIFATSNLASGVPSRFSGSGSGTSYSLTISRVEAEDAATYYCQQWRSDRALTFGAGTKLELIR
notes: No cleavage site is stated; also called mAb 21.16; VL1VH1
B2: chimeric anti-CLL-1 monoclonal antibody 1075.7 (antibody, human IgG1, V domains shown)
VH: DIQLQESGPGLVKPSQSLSLTCSVTGYSITSAYYWNWIRQFPGNKLEWMGYISYDGRNNYNPSLKNRISITRDTSKNQFFLKLNSVTTEDTATYYCAKEGDYDVGNYYAMDYWGQGTSVTVSS
VL: ENVLTQSPAIMSASPGEKVTMTCRASSNVISSYVHWYQQRSGASPKLWIYSTSNLASGVPARFSGSGSGTSYSLTISSVEAEDAATYYCQQYSGYPLTFGAGTKLELKR
notes: No cleavage site is stated; also called mAb 1075.7; clone #1075.7

How the values were obtained:
[1] = target: T1, CLL-1-ECD-V5His recombinant protein; assay: SPR (BIAcore), mAb captured via anti-mouse mAb, antigen in solution, 25° C.
Protocol: (§1) Kinetic rate constants (kₐ and kd) were determined using surface plasmon resonance and affinities (KD) were then calculated from the rate constants (kd/kₐ). Surface plasmon resonance was carried out on a BlAcore system (Biacore International AB, Uppsala, Sweden). Chimeric monoclonal antibodies (21.16 or 1075.7) were diluted to 2 μg/ml and then captured on the biosensor surface using an anti-mouse mAb. Antigen was diluted to a starting concentration of 46 nM and tested for binding to the mAb samples using a 3-fold dilution series. Each of 5 concentrations was tested twice except the highest concentration which was tested 5 times in total, two times with a short dissociation of 300 seconds followed by three times with a dissociation of 60 minutes. The data sets from the long dissociation experiments were globally fit with the shorter association experiments to determine binding constants for the interactions. The analysis was carried out in HBS, pH 7.4 buffer at 25° C. (Canziani et al, Anal. Biochem. 352:301-307 (2004)).

[2] = target: T2, CLL-1 on cells (HEK293 cells stably …); assay: cell-based or functional assay
[3] = target: T1, CLL-1-ECD-V5His recombinant protein; assay: SPR (BIAcore), mAb captured via anti-mouse mAb, antigen in solution, 25° C.; KD = kd/ka
Protocol: as §1

| Binder | kon [1] [M⁻¹ s⁻¹] | EC50 of complement-dependent cytotoxicity (CDC) on OCI-AML5 cells [2] [µg/mL] | EC50 of ex vivo cytotoxicity on patient AML sample 'M1' [2] [µg/mL] | EC50 of ex vivo cytotoxicity on patient AML sample 'M5a' [2] [µg/mL] | complement-dependent cytotoxicity (CDC), EC50, HEK293 cells expressing CLL-1 [2] [µg/mL] | Kd [3] [nM] | koff [1] [s⁻¹] |
| --- | --- | --- | --- | --- | --- | --- | --- |
| B1 | 554000 | ~0.0071 | 0.284 | 0.146 | ~0.088 | – | – |
| B2 | 417000 | – | – | – | – | 0.36 | 0.00015 |
